The text below walks through data of PMC7949130, “Defective binding of SPINK1 variants is an uncommon mechanism for impaired trypsin inhibition in chronic pancreatitis” (The Journal of Biological Chemistry, 2021).

Positions count from the first letter of the chain named. Names may count otherwise.

Holding throughout (conditions): both partners purified
Assay [1] deals with T1, nonsulfated human anionic trypsin purified from E. coli (human, UniProt P07478 24-247).
T1 construct: human anionic trypsin, the active enzyme cut from anionic trypsinogen (Hu2) by enteropeptidase; Not sulfated on Tyr154; also called Hu2 (E. coli); Hu2
In words: equilibrium binding assay; equilibrium dissociation constant of ecotin on human trypsins, 15 h of incubation; further conditions not told for ecotin.

Assay [2] deals with T2, native sulfated human anionic trypsin purified from pancreatic juice (human, UniProt P07478 24-247, sulfated on Tyr154).
T2 construct: human anionic trypsin, the active enzyme cut from anionic trypsinogen by enteropeptidase; also called Hu2-SO4 (native); Hu2-SO4
The assay is described as above.

The target in assay [3] is T1, nonsulfated human anionic trypsin …. The experiment in a line: KD calculated from the rate constants (association and dissociation rate assays); KD(calc): equilibrium dissociation constant calculated from kon and koff of the activity-based rate assays.
The target of assay [4] is T2, native sulfated human anionic trypsin …. Described as above.
The target in assay [5] is T1, nonsulfated human anionic trypsin …. In words: discontinuous association rate assay (residual trypsin activity); 50 pM trypsin mixed with 500 pM SPINK1, 0.1 M Tris-HCl (pH 8.0), 150 mM NaCl, 1 mM CaCl2, 0.05% Tween 20, 23 °C; kon from the pseudo-first-order rate constant divided by the inhibitor concentration.
Assay [6] concerns the target T2, native sulfated human anionic trypsin …. Described as above.
For assay [7], the target named is T1, nonsulfated human anionic trypsin …. The experiment in a line: dissociation rate assay (recovery of trypsin activity after dilution of the complex); complex of 11 nM SPINK1 and 10 nM trypsin formed for 1 h at 23 °C, diluted to 50-200 pM with 0.6 mM Z-Gly-Pro-Arg-AMC, 0.1 M Tris-HCl (pH 8.0), 150 mM NaCl, 1 mM CaCl2, 0.05% Tween 20, room temperature, followed for 1 h.

The target in assay [8] is T2, native sulfated human anionic trypsin …. The assay is described as above.
Assay [9] concerns the target T1, nonsulfated human anionic trypsin …. The experiment in a line: equilibrium binding assay (free trypsin activity on a fluorogenic substrate); fixed trypsin incubated with increasing SPINK1, 0.2 ml, 0.1 M Tris-HCl (pH 8.0), 150 mM NaCl, 1 mM CaCl2, 0.05% Tween 20, 15 h; free trypsin measured with Z-Gly-Pro-Arg-AMC; apparent KD, global fit of at least three experiments.

For assay [10], the target named is T2, native sulfated human anionic trypsin …. The assay is described as above.
Assay [11] has as its target T3, nonsulfated human anionic trypsin purified from the conditioned medium of transfected HEK 293T cells (human, UniProt P07478 24-247).
T3 construct: human anionic trypsin, the active enzyme cut from anionic trypsinogen (Hu2) by enteropeptidase; Sulfation prevented by sodium chlorate; also called Hu2 (HEK 293T); source: HEK 293T, transfected, grown with 50 mM sodium chlorate
Described as above.

Assay [12] has as its target T4, sulfated human anionic trypsin purified from the conditioned medium of transfected HEK 293T cells (human, UniProt P07478 24-247, sulfated on Tyr154).
T4 construct: human anionic trypsin, the active enzyme cut from anionic trypsinogen (Hu2) by enteropeptidase; also called Hu2-SO4 (HEK 293T); source: HEK 293T, cotransfected with tyrosylprotein sulfotransferase 2
The description is as above.

Assay [13] has as its target T2, native sulfated human anionic trypsin …. Described as above. The source holds these as a separate data set.
For assay [14] the target is unchanged. The experiment in a line: equilibrium binding assay (free trypsin activity on a fluorogenic substrate); as the equilibrium assay but K41N SPINK1 incubated with trypsin for 1 h; 0.1 M Tris-HCl (pH 8.0), 150 mM NaCl, 1 mM CaCl2, 0.05% Tween 20; apparent KD.

T2 sequence (P07478 24-247): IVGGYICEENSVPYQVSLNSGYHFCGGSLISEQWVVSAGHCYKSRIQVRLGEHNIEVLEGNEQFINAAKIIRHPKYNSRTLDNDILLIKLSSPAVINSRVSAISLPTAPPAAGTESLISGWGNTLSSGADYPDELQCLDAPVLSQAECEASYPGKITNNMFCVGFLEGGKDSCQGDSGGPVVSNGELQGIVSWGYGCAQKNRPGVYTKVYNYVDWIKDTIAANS
T1 sequence (P07478 24-247): as above
T4 sequence (P07478 24-247): as above
T3 sequence (P07478 24-247): as above

B1: ecotin (natural protein)
chain: not shown
notes: source: E. coli BL21(DE3), overexpressed, purified from the periplasm
In the case of B1, the figures for the Kd in [1] and in assay [2] were 0.0032 nM and 0.0195 nM, respectively.

B2: serine protease inhibitor Kazal type 1 (SPINK1), wildtype, C-terminal 10His tag (natural protein, human, UniProt P00995 24-79, looked up)
chain: DSLGREAKCYNELNGCTKIYDPVCGTDGNTYPNECVLCFENRKRQTSILIQKSGPC
notes: expressed from the SPINK1-minigene-1 construct with its own signal peptide; Residue numbers start at the initiator methionine; source: HEK 293T, transfected, purified from conditioned medium (nickel-nitrilotriacetic acid cartridge); not shown: 10His, C-terminal, kept
In general, kon refers to the rate constant with which the complex forms. A low value points to slow association. A word on the koff: it is the rate constant with which the complex falls apart. Read a high koff as a short-lived complex. With B2, the Kd in assay [3] is 0.0001 nM; in [4], 0.0075 nM; in assay [9] it was 0.0003 nM; in assay [10], 0.0367 nM; in assay [11], 0.0005 nM; in assay [12], 0.009 nM. Moreover, the kon in assay [5] came out at 3.8e+06 M⁻¹ s⁻¹; in assay [6], 2.4e+06 M⁻¹ s⁻¹. Further, the koff in assay [7] worked out at 5e-07 s⁻¹; in [8], 1.81e-05 s⁻¹.

B3: SPINK1 variant N34S, C-terminal 10His tag (natural protein, human, UniProt P00995 24-79, looked up)
chain: B2 chain with N11S
notes: also called SPINK1 N34S; p.N34S; source: HEK 293T, transfected, purified from conditioned medium (nickel-nitrilotriacetic acid cartridge); not shown: 10His, C-terminal, kept
On to B3, for which the Kd was 0.0001 nM in assay [3]; 0.0044 nM in assay [4]; 0.0004 nM in assay [9]; 0.0167 nM in assay [10]; 0.0008 nM in assay [11]; 0.0063 nM in [12]. The kon in assay [5] stood at 5.1e+06 M⁻¹ s⁻¹; in assay [6] it was 3.1e+06 M⁻¹ s⁻¹. Also, the koff was determined as 4e-07 s⁻¹ in [7] and 1.36e-05 s⁻¹ in assay [8].

B4: SPINK1 variant Q68R, C-terminal 10His tag (natural protein, human, UniProt P00995 24-79, looked up)
chain: B2 chain with Q45R
notes: also called SPINK1 Q68R; p.Q68R; source: HEK 293T, transfected, purified from conditioned medium (nickel-nitrilotriacetic acid cartridge); not shown: 10His, C-terminal, kept
Take B4: the Kd in [13] was 0.027 nM.

B5: SPINK1 variant K41N, C-terminal 10His tag (natural protein, human, UniProt P00995 24-79, looked up)
chain: B2 chain with K18N
notes: Its concentration was determined by SDS-PAGE and densitometry, not by active site titration; also called SPINK1 K41N; p.K41N; source: HEK 293T, transfected, purified from conditioned medium (nickel-nitrilotriacetic acid cartridge); not shown: 10His, C-terminal, kept
As for B5, the Kd in [14] is 1150 nM.

B6: SPINK1 variant P55S, C-terminal 10His tag (natural protein, human, UniProt P00995 24-79, looked up)
chain: B2 chain with P32S
notes: also called SPINK1 P55S; p.P55S; source: HEK 293T, transfected, purified from conditioned medium (nickel-nitrilotriacetic acid cartridge); not shown: 10His, C-terminal, kept
In the case of B6, in assay [13], the Kd is 0.123 nM.

B7: SPINK1 variant N37S, C-terminal 10His tag (natural protein, human, UniProt P00995 24-79, looked up)
chain: B2 chain with N14S
notes: also called SPINK1 N37S; p.N37S; source: HEK 293T, transfected, purified from conditioned medium (nickel-nitrilotriacetic acid cartridge); not shown: 10His, C-terminal, kept
For the molecule B7, the Kd in assay [13] stood at 0.0214 nM.

B8: SPINK1 variant I42M, C-terminal 10His tag (natural protein, human, UniProt P00995 24-79, looked up)
chain: B2 chain with I19M
notes: also called SPINK1 I42M; p.I42M; source: HEK 293T, transfected, purified from conditioned medium (nickel-nitrilotriacetic acid cartridge); not shown: 10His, C-terminal, kept
For B8, the Kd in assay [13] was 0.258 nM.

B9: SPINK1 variant R65Q, C-terminal 10His tag (natural protein, human, UniProt P00995 24-79, looked up)
chain: B2 chain with R42Q
notes: also called SPINK1 R65Q; p.R65Q; source: HEK 293T, transfected, purified from conditioned medium (nickel-nitrilotriacetic acid cartridge); not shown: 10His, C-terminal, kept
In the case of B9, the Kd in assay [13] came out at 0.006 nM.
